Where a chain is given by its changes, count along the chain named. Each block holds one binder with its values, some of them ahead of it.
Target: T1, SLAMF6 (human, UniProt Q96DU3)
T1 chain: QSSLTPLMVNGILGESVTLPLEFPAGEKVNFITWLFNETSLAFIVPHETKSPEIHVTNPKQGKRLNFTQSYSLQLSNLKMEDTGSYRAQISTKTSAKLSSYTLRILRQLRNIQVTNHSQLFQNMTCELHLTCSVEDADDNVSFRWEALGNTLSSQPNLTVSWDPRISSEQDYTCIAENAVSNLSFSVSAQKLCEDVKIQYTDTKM
Assay: SPR

- Kd: 6 nM
B1: LB-116 (antibody, V domains shown)
VH: EVQLLESGGGLVQPGGSLRLSCAASGFTFSYSYMYWVRQAPGKGLEWVSSISSSGGSTSYADSVKGRFTISRDNSKNTLYLQMNSLRAEDTAVYYCARPNVDSYMDYWGQGTLVTVSS
VL: DIQMTQSPSSLSASVGDHVTITCRASQSISSYLNWYQQKPGKAPKLLIYAASSLQSGVPSRFSGSGSGTDFTLTISSLQPEDFATYYCQQSYIYLPFTFGQGTKLEIK

- Kd: 12 nM
B2: LB-032 (antibody, V domains shown)
VH: EVQLLESGGGLVQPGGSLRLSCAASGFTFGSYGMSWVRQAPGKGLEWVSYISYSGSYTYYADSVKGRFTISRDNSKNTLYLQMNSLRAEDTAVYYCARGADYYSVLDYWGQGTLVTVSS
VL: B1 VL with S91F, Y92S, I93T, Y94S, L95P, F97S

- Kd: 16 nM
B3: LB-302 (antibody, V domains shown)
VH: EVQLLESGGGLVQPGGSLRLSCAASGFTFGGYGMSWVRQAPGKGLEWVSYIGYGGSYTYYADSVKGRFTISRDNSKNTLYLQMNSLRAEDTAVYYCARDGAGSYGFFDYWGQGTLVTVSS
VL: B1 VL with S91F, I93T, Y94N, L95P, P96L, F97L

- Kd: 0.38 nM
B4: LB-031 (antibody, V domains shown)
VH: EVQLLESGGGLVQPGGSLRLSCAASGFTFGSYYMGWVRQAPGKGLEWVSYISGYSGYTYYADSVKGRFTISRDNSKNTLYLQMNSLRAEDTAVYYCARFSSPAGYPRMDYWGQGTLVTVSS
VL: DIQMTQSPSSLSASVGDHVTITCRASQSISSYLNWYQQKPGKAPKLLIYAASSLQSGVPSRFSGSGSGTDFTLTISSLQPEDFATYYCQQYYTLPTFGQGTKLEIK

- Kd: 4.1 nM
B5: LB-20H10 (antibody, V domains shown)
VH: QVQLQQSGAELVRPGTSVKMSCKAAGYTFTNYWIGWVKQRPGHGLEWIGDIYPGGGYTHHNEKFKGKATLTADTSSSTAYMQLSSLTSEDSAIYYCARSVLPGFAYWGQGTLVTVSA
VL: DIVMTQSHKFMSTSVGDRVSITCKASQDVNTAVAWCQQKPGQSPKLLIYSASYRFTGVPDRFTGSGSGTDFTFTISSVQAEDLAVYFCQQHYSTPYTFGGGTKLEIK
